Test results from patent US20190127462A1 (UNIVERSITY OF TSUKUBA, published 2019).

T1: human DNAX accessory molecule-1 (DNAM-1) protein (human, UniProt Q15762 19-336)
T1 construct: whole, on cells; Expressed on BW5147 mouse lymphocyte cells (DNAM-1/BW) or present on human peripheral blood lymphocytes / CD8+ T cells; also called CD226; human DMAM-1 protein
T1 sequence (looked up): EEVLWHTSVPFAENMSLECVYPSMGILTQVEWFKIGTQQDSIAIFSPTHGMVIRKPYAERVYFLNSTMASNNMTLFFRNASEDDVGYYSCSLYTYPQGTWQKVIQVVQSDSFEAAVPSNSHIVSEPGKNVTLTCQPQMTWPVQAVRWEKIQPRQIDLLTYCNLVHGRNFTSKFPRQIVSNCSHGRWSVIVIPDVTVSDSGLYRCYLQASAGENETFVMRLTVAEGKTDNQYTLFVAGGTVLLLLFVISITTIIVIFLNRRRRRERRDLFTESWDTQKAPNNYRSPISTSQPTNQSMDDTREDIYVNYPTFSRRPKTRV

B1: anti-human DNAM-1 monoclonal antibody No. 2 (antibody, V domains shown)
VH: SQSLSLTCTVTGYSITSDYAWNWIRQFPGNKLEWMGYISYSGTTTYNPSLKSRISITRDTSKNQFFLQLNSVTTEDTATYYCAELSMDYWGQGTSVTVSS
VL: DIVLSQSPAILSVSPGERVSFSCRASQSIGTSIHWYQQRTNGSPRLLIKYASESISGIPSRFSGSGSGTDFTLSINSVESEDIADYYCQQSRSWPLTFGAGTKLELKR
notes: Mouse hybridoma monoclonal antibody
B2: anti-human DNAM-1 monoclonal antibody No. 3 (antibody, V domains shown)
VH: EISCKASGYTFTNYWLGWVKQRPGHGLEWIGDIYPGGGYTNYNEKFKGKATLTADTSSSTAYMQLSSLTSEDSAVYFCANAYYRYKGFAYWGQGTLVTVSA
VL: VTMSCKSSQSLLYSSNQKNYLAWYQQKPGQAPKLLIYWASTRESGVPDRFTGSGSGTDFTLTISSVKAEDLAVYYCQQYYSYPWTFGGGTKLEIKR
notes: as for B1
B3: anti-human DNAM-1 monoclonal antibody No. 1 (antibody, V domains shown)
VH: SQSLSLTCSVTGYSITSGYYWNWIRQFPGNKLEWMGYISYDGSNNYNPSLKNRISITRDTSKNQFFLKLNSVTTEDTATYYCARAYYGNYVGYFDVWGAGTTVTVSS
VL: RVTITCKASQSVSNDVAWYQQKPGQSPKLLIYYASNRYTGVPDRFTGSGYGTDFTFTISTVQAEDLAVYFCQQDYSSPLTFGAGTKLELKR
notes: as for B1
B4: anti-human DNAM-1 monoclonal antibody No. 4 (antibody, V domains shown)
VH: KWGLSEISCKASGYTFTDYNMHWVKQSHGKSLEWIGYIYPYNGGTGYNQKFKSKATLTVDNSSSTAYMELRSLTSEDSAVYYCAGYWYFDVWGAGTTVTVSS
VL: EKVSITCKASQDVGTAVAWYQQKPGQSPKLLIYWASTRHTGVPDRFTGSGSGTDFTLTISNVQSEDLADYFCQQYSSYPWTFGGGTKLEIKR
notes: as for B1

molecular target: T1, human DNAX accessory molecule-1 …; experiment: flow cytometry on 1x10^5 DNAM-1/BW cells

Binder | minimum amount required for saturating human DNAM-1 on 1x10^5 DNAM-1/BW cells [ng]
B1 | 50
B2 | 100
B3 | 30
B4 | 100

molecular target: T1, human DNAX accessory molecule-1 …; experiment: flow cytometry; 1x10^5 DNAM-1/BW cells pre-saturated with 1000 ng hCD155-Fc (competitor); remaining hCD155-Fc detected
Description: After DNAM-1/BW cells reacted with the hCD155-Fc protein in advance had been reacted with a specific one of the monoclonal antibody No. 1 to No. 6 diluted serially in Test example 6, the hCD155-Fc protein bound to the DNAM-1 protein present on the surfaces of the DNAM-1/BW cells was detected. The detection of the hCD155-Fc protein was conducted using an anti-human IgG antibody. The reaction was made on ice for 30 minutes.
It was also confirmed that, in the range where the concentration of the monoclonal antibody reacted with the DNAM-1/BW cells was low, the reidues of hCD155-Fc protein after the DNAM-1/BW cells had been reacted with the monoclonal antibody No. 3 was smaller than that of hCD155-Fc protein after the DNAM-1/BW cells had been reacted with the monoclonal antibody No. 2. This proves that, in the range where the concentration of the monoclonal antibody reacted with the DNAM-1/BW cells was low, the monoclonal antibody No. 3 had higher activity of inhibiting the interaction between the DNAM-1 protein and the CD155 protein than the monoclonal antibody No. 2. In the range where the concentration of the monoclonal antibody reacted with the DNAM-1/BW cells was high, the difference in the above reactivity between the monoclonal antibody Nos. 2 and 3 was small. The amount of monoclonal antibody No. 3 required for completely inhibiting the interaction between the DNAM-1 protein and the CD155 protein was 300 ng.

Binder | amount required for completely inhibiting the interaction between the DNAM-1 protein and the CD155 protein [ng]
B1 | 300
B2 | 300
B3 | 100
B4 | 1000
